Changes are numbered by the printed parent chain. In names and notes the source's numbering stands. Read-outs that look alike come from different tables or passages of the source. Each block holds one binder with its values, some of them ahead of it.
Experiments:
murine FAP [1] = molecular target: T1, murine FAP (murine, UniProt P97321 26-761, limits assumed); assay: flow cytometry, cells carrying murine FAP not told
T1 construct: also called mouse FAP

cynomolgus ICOS [2] = molecular target: T2, cynomolgus ICOS (cynomolgus, UniProt Q9Y6W8 21-195 (human entry)); assay: flow cytometry, activated cynomolgus PBMCs, CD4+ subset
T2 chain: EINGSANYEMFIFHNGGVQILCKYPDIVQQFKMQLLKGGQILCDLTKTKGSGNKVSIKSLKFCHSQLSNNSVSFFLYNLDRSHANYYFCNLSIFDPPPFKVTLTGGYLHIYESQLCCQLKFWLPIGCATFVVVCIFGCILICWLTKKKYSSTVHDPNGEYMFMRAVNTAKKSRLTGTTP
Experimental: (§1) Briefly, suspension cells were harvested, counted, checked for viability and re-suspended at 1 million cells per ml in FACS buffer (PBS with 0.1% BSA). […] The staining was fixed for 20 min at 4° C. in the dark, using 75 μl of 1% PFA in FACS buffer per well.
(§2) Briefly, cynomolgus PBMCs were activated for 48 hours using Dynabeads™ Human T-Activator CD3/CD28 (Thermo Fischer #11131D) according to manufacturer instruction and stored in RPMI1640 medium containing 10% FCS and 1% Glutamax (Gibco 35050061) at 37° C., in a humidified incubator until subsequent binding experiment was performed, as described above.

human FAP [3] = molecular target: T3, human FAP (human, UniProt Q12884 1-760); assay: flow cytometry, NIH/3T3-huFAP clone 19 cells
T3 construct: also called hu FAP
Experimental: as §1
(§3) Fluorescence was analyzed by FACS using a FACS Fortessa (Software FACS Diva). Binding curves and EC₅₀ values were obtained using GraphPadPrism 7.

murine FAP [4] = molecular target: T1, murine FAP; assay: flow cytometry, % positive cells; cells bearing murine FAP not given
cynomolgus ICOS [5] = molecular target: T2, cynomolgus ICOS; assay: flow cytometry, activated cynomolgus PBMCs, CD8+ subset
Experimental: as §1, §2

human ICOS [6] = molecular target: T4, human ICOS (human, UniProt Q9Y6W8 21-199); assay: flow cytometry on CHO cells stably expressing human ICOS, AF647-labelled anti-human Fc secondary antibody, MFI
T4 construct: The cell that carries it is named under assay; also called huICOS; CD278
T4 sequence: T2 chain with K54T, R81H, T129A, F136L, T152S, G176D, T177V, P179L
Experimental: as §1, §3

cynomolgus ICOS [7] = molecular target: T2, cynomolgus ICOS; assay: flow cytometry, activated cynomolgus PBMCs, CD8+ subset
Experimental: as §1, §2

human ICOS [8] = molecular target: T4, human ICOS; assay: flow cytometry, CHO cells expressing human ICOS
Experimental: as §1, §3

murine ICOS = molecular target: T5, murine ICOS (murine, UniProt Q9WVS0 21-200); assay: flow cytometry, pre-activated murine splenocytes (figure legend: recombinant CHO cells)
T5 sequence: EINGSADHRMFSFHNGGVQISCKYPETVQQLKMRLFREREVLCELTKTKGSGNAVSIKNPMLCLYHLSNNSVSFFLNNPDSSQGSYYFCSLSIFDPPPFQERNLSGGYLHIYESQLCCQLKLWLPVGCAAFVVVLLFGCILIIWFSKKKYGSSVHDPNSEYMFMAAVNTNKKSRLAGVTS

cynomolgus ICOS [9] = molecular target: T2, cynomolgus ICOS; assay: flow cytometry, activated cynomolgus PBMCs, CD4+ subset
Experimental: as §1, §2

human ICOS [10] = molecular target: T4, human ICOS; assay: flow cytometry on human PBMCs pre-activated 48 h with PHA-L and IL-2, CD4+ subset, MFI
human ICOS [11] = molecular target: T4, human ICOS; assay: as above; remark: listed apart in the source
Experimental: as §1
Briefly, Peripheral blood mononuclear cells (PBMCs) were prepared by Histopaque (Sigma-Aldrich, Cat No. 10771-500ML Histopaque-1077) density centrifugation of enriched lymphocyte preparations of heparinized blood obtained from a Buffy Coat (“Blutspende Zürich”). The blood was diluted 1:2 with sterile DPBS and layered over Histopaque gradient (Sigma, #H8889). After centrifugation (450×g, 30 minutes, room temperature), the plasma above the PBMC-containing interphase was discarded and PBMCs transferred in a new falcon tube subsequently filled with 50 ml of PBS. The mixture was centrifuged (400×g, 10 minutes, room temperature), the supernatant discarded and the PBMC pellet washed twice with sterile PBS (centrifugation steps 350×g, 10 minutes). The resulting PBMC population was counted automatically (Cedex HiRes) and stored in RPMI1640 medium containing 10% FCS and 1% Glutamax (Gibco 35050061). […] After incubation the PBMCs were used for a subsequent binding experiment, as described above.

human FAP [12] = molecular target: T3, human FAP; assay: flow cytometry, NIH/3T3-huFAP clone 19 cells; remark: listed apart in the source

EC50 (murine FAP [1]): 0.505 nM | EC50 (cynomolgus ICOS [2]): 5.5 nM | EC50 (human FAP [3]): 5.73 nM | EC50 (read off the curve) (murine FAP [4]): ~0.5 nM | EC50 (cynomolgus ICOS [5]): 10.5 nM | EC50 (read off the curve) (human ICOS [6]): ~3 nM | EC50 (cynomolgus ICOS [7]): 10.5 nM | EC50 (human ICOS [8]): 2.72 nM | EC50 (murine ICOS): 7.21 nM | EC50 (cynomolgus ICOS [9]): 5.5 nM
B1: Molecule 9, bispecific 2+1 anti-ICOS (1167)/anti-FAP (4B9) huIgG1 P329GLALA kih (bispecific antibody)
heavy 1: EVRLLESGGGLVQPGGSLRLSCAASGFTFNTYAVHWVRQAPGKGLEWVSGIGGSGVRTYYADSVKGRLTISRDNSKNTLYLQMNSLRAEDTAIYFCAKDIYVADFTGYAFDIWGQGTMVTVSSASTKGPSVFPLAPSSKSTSGGTAALGCLVKDYFPEPVTVSWNSGALTSGVHTFPAVLQSSGLYSLSSVVTVPSSSLGTQTYICNVNHKPSNTKVDKKVEPKSCDKTHTCPPCPAPEAAGGPSVFLFPPKPKDTLMISRTPEVTCVVVDVSHEDPEVKFNWYVDGVEVHNAKTKPREEQYNSTYRVVSVLTVLHQDWLNGKEYKCKVSNKALGAPIEKTISKAKGQPREPQVCTLPPSRDELTKNQVSLSCAVKGFYPSDIAVEWESNGQPENNYKTTPPVLDSDGSFFLVSKLTVDKSRWQQGNVFSCSVMHEALHNHYTQKSLSLSPGGGGGSGGGGSGGGGSGGGGSEIVLTQSPGTLSLSPGERATLSCRASQSVTSSYLAWYQQKPGQAPRLLINVGSRRATGIPDRFSGSGSGTDFTLTISRLEPEDFAVYYCQQGIMLPPTFGQGTKVEIK
heavy 2: not shown
light: DIQMTQSPSSVSASVGDRVTITCRASQGINNFLAWYQQKPGKAPKLLIYDASSLQSGVPSRFAGSGSGTDFTLTISSLQPEDFATYYCQQYNFYPLTFGGGTMVEIKRTVAAPSVFIFPPSDRKLKSGTASVVCLLNNFYPREAKVQWKVDNALQSGNSQESVTEQDSKDSTYSLSSTLTLSKADYEKHKVYACEVTHQGLSSPVTKSFNRGEC
notes: also called FAP-ICOS (2+1)

binding result (human ICOS [10]): binds
B2: Molecule 41, CEA(A5H1EL1D)-ICOS(1167) 1+1 human IgG1 P329GLALA (bispecific antibody)
heavy 1: EIVLTQSPATLSLSPGERATLSCRASSSVTYIHWYQQKPGQAPRSWIYATSNLASGIPARFSGSGSGTDFTLTISSLEPEDFAVYYCQHWSSKPPTFGQGTKLEIKSSASTKGPSVFPLAPSSKSTSGGTAALGCLVKDYFPEPVTVSWNSGALTSGVHTFPAVLQSSGLYSLSSVVTVPSSSLGTQTYICNVNHKPSNTKVDKKVEPKSCDKTHTCPPCPAPEAAGGPSVFLFPPKPKDTLMISRTPEVTCVVVDVSHEDPEVKFNWYVDGVEVHNAKTKPREEQYNSTYRVVSVLTVLHQDWLNGKEYKCKVSNKALGAPIEKTISKAKGQPREPQVCTLPPSRDELTKNQVSLSCAVKGFYPSDIAVEWESNGQPENNYKTTPPVLDSDGSFFLVSKLTVDKSRWQQGNVFSCSVMHEALHNHYTQKSLSLSP
light 1: EVQLLESGGGLVQPGGSLRLSCAASGFTFTDYYMNWVRQAPGKGLEWLGFIGNKANAYTTEYSASVKGRFTISRDKSKNTLYLQMNSLRAEDTATYYCTRDRGLRFYFDYWGQGTTVTVSSASVAAPSVFIFPPSDEQLKSGTASVVCLLNNFYPREAKVQWKVDNALQSGNSQESVTEQDSKDSTYSLSSTLTLSKADYEKHKVYACEVTHQGLSSPVTKSFNRGEC
heavy 2: not shown
light 2: B1 light

binding result (human ICOS [11]): binds | EC50 (human FAP [12]): 4.45 nM
B3: Molecule 13, bispecific 2+1 anti-ICOS (1167)/anti-FAP (4B9) Crossfab-IgG P329G LALA inverted (bispecific antibody)
heavy 1: EVRLLESGGGLVQPGGSLRLSCAASGFTFNTYAVHWVRQAPGKGLEWVSGIGGSGVRTYYADSVKGRLTISRDNSKNTLYLQMNSLRAEDTAIYFCAKDIYVADFTGYAFDIWGQGTMVTVSSASTKGPSVFPLAPSSKSTSGGTAALGCLVEDYFPEPVTVSWNSGALTSGVHTFPAVLQSSGLYSLSSVVTVPSSSLGTQTYICNVNHKPSNTKVDEKVEPKSCDKTHTCPPCPAPEAAGGPSVFLFPPKPKDTLMISRTPEVTCVVVDVSHEDPEVKFNWYVDGVEVHNAKTKPREEQYNSTYRVVSVLTVLHQDWLNGKEYKCKVSNKALGAPIEKTISKAKGQPREPQVCTLPPSRDELTKNQVSLSCAVKGFYPSDIAVEWESNGQPENNYKTTPPVLDSDGSFFLVSKLTVDKSRWQQGNVFSCSVMHEALHNHYTQKSLSLSP
light 1: B1 light
heavy 2: not shown
light 2: EVQLLESGGGLVQPGGSLRLSCAASGFTFSSYAMSWVRQAPGKGLEWVSAIIGSGASTYYADSVKGRFTISRDNSKNTLYLQMNSLRAEDTAVYYCAKGWFGGFNYWGQGTLVTVSSASVAAPSVFIFPPSDEQLKSGTASVVCLLNNFYPREAKVQWKVDNALQSGNSQESVTEQDSKDSTYSLSSTLTLSKADYEKHKVYACEVTHQGLSSPVTKSFNRGEC

From US20220098305A1 (Hoffmann-La Roche, published 2022)
